Results taken from US20230265179A1 (TWIST BIOSCIENCE, published 2023).

T1: CD40L (UniProt P29965 1-261, limits assumed)
T1 construct: whole, on cells; also called cytokine over-expressing Expi293 cells (CD40L)
T1 sequence (looked up): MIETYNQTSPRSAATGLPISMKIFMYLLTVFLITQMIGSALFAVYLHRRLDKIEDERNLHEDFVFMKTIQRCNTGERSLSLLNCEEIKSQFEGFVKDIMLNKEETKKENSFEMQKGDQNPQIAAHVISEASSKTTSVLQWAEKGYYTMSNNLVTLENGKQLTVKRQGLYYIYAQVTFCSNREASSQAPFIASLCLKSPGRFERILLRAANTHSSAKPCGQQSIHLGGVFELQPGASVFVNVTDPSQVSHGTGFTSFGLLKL


Molecular target: T1, CD40L
Assay: flow cytometry, 100 nM IgG, CD40L over-expressing Expi293 cells over parent Expi293 cells
Method: All incubations and washes were in buffer containing PBS+1% BSA. MFI Ratio is defined by the mean fluorescence intensity (MFI) of the cytokine over-expressing Expi293 cell over the Expi293 parent cell. […] EC50 was calculated in GraphPad Prism.

Row | Binder | 100 nM FACS (MFI Ratio)
1 | CD40L-340 (antibody, V domains shown) VH: EVQLLESGGGLVQPGGSLRLSCAASGFGFSSYAMSWVRQAPGKGLEWVSAISGGGGSIYYADSVKGRFTISRDNSKNTLYLQMNSLRAEDTAVYYCATDYGDYDRLNFDLWGQGTLVTVSS VL: DIQMTQSPSSLSASVGDRVTITCRASQSVSRFLNWYQQKPGKAPKLLIYAASTLQPGVPSRFSGSGSGTDFTLTISSLQPEDFATYYCQQSYETPLTFGQGTKVEIK | 61.5 MFI ratio
2 | CD40L-348 (antibody, V domains shown) VH: not shown VL: DIQMTQSPSSLSASVGDRVTITCRASQTISNFLNWYQQKPGKAPKLLIYAASTLQYGVPSRFSGSGSGTDFTLTISSLQPEDFATYYCQQNYRSPLTFGGGTKVEIK | 6.2 MFI ratio
3 | CD40L-437 (antibody, V domains shown) VH: EVQLLESGGGLVQPGGSLRLSCAASGFSFSSYAMAWVRQAPGKGLEWVSSISGSGGGGNTYYADSVKGRFTISRDNSKNTLYLQMNSLRAEDTAVYYCARHHERDYYGMDVWGQGTLVTVSS VL: DIQMTQSPSSLSASVGDRVTITCRASQTISNFLNWYQQKPGKAPKLLIYAASTLQYGVPSRFSGSGSGTDFTLTISSLQPEDFATYYCQQTYSFPLTFGGGTKVEIK | 4.3 MFI ratio
4 | CD40L-360 (antibody, V domains shown) VH: EVQLLESGGGLVQPGGSLRLSCAASGFTFGRYAMSWVRQAPGKGLEWVSDISGSGGSTYYADSVKGRFTISRDNSKNTLYLQMNSLRAEDTAVYYCARDGFRWGRAEYFQHWGQGTLVTVSS VL: DIQMTQSPSSLSASVGDRVTITCRASQTISSYLSWYQQKPGKAPKLLIYDASTLQSGVPSRFSGSGSGTDFTLTISSLQPEDFATYYCQQSYRIPLTFGGGTKVEIK | 15.4 MFI ratio
5 | CD40L-345 (antibody, V domains shown) VH: not shown VL: DIQMTQSPSSLSASVGDRVTITCRASQTISNFLNWYQQKPGKAPKLLIYAASTLQYGVPSRFSGSGSGTDFTLTISSLQPEDFATYYCQQNYRSPLTFGQGTKVEIK | 7.7 MFI ratio
6 | CD40L-338 (antibody, V domains shown) VH: EVQLLESGGGLVQPGGSLRLSCAASGFTFGSFAMNWVRQAPGKGLEWVSAITGGGGSTYYADSVKGRFTISRDNSKNTLYLQMNSLRAEDTAVYYCAHGLAWRWGFDYWGQGTLVTVSS VL: DIQMTQSPSSLSASVGDRVTITCRASQNIDRYLNWYQQKPGKAPKLLIYAASALQSGVPSRFSGSGSGTDFTLTISSLQPEDFATYYCQQSYSILPVTFGQGTKVEIK | 34.3 MFI ratio
7 | CD40L-344 (antibody, V domains shown) VH: EVQLLESGGGLVQPGGSLRLSCAASGFTFSKYAMNWVRQAPGKGLEWVSAISGSGESTYYADSVKGRFTISRDNSKNTLYLQMNSLRAEDTAVYYCARAHDYDSMLMDYWGQGTLVTVSS VL: DIQMTQSPSSLSASVGDRVTITCRASESITTYLNWYQQKPGKAPKLLIYTASGLQSGVPSRFSGSGSGTDFTLTISSLQPEDFATYYCQQSYTVPITFGQGTKVEIK | 4.9 MFI ratio
8 | CD40L-347 (antibody, V domains shown) VH: EVQLLESGGGLVQPGGSLRLSCAASGFTFSNYAMSWVRQAPGKGLEWVSAITGSGSTTYYADSVKGRFTISRDNSKNTLYLQMNSLRAEDTAVYYCARAHDYDSMLMDYWGQGTLVTVSS VL: DIQMTQSPSSLSASVGDRVTITCRASQSIGTFLNWYQQKPGKAPKLLIYGTSNLQSGVPSRFSGSGSGTDFTLTISSLQPEDFATYYCQQGYRTPLTFGGGTKVEIK | 11.6 MFI ratio
9 | CD40L-341 (antibody, V domains shown) VH: EVQLLESGGGLVQPGGSLRLSCAASGFTFRSYAMTWVRQAPGKGLEWVSAISGSGDRTYYGDSVKGRFTISRDNSKNTLYLQMNSLRAEDTAVYYCARIARSEDFWSGYYTDFDFDYWGQGTLVTVSS VL: DIQMTQSPSSLSASVGDRVTITCRASQSISTYLNWYQQKPGKAPKLLIYRASTLQSGVPSRFSGSGSGTDFTLTISSLQPEDFATYYCQQSYSNPPTFGQGTKVEIK | 125 MFI ratio
10 | CD40L-339 (antibody, V domains shown) VH: EVQLLESGGGLVQPGGSLRLSCAASGFTFSNYAMSWVRQAPGKGLEWVSAITGSGSTTYYADSVKGRFTISRDNSKNTLYLQMNSLRAEDTAVYYCARAHDYDSMLMDYWGQGTLVTVSS VL: DIQMTQSPSSLSASVGDRVTITCRASQSIGTFLNWYQQKPGKAPKLLIYGTSNLQSGVPSRFSGSGSGTDFTLTISSLQPEDFATYYCQQGYRTPLTFGQGTKVEIK | 56.6 MFI ratio

The remaining lines, values ahead:

Row | 100 nM FACS (MFI Ratio) | Binder
11 | 7.6 MFI ratio | CD40L-355 (antibody, V domains shown) VH: EVQLLESGGGLVQPGGSLRLSCAASGFIFSNYDMSWVRQAPGKGLEWVSGISGSGGSTSYADSVKGRFTISRDNSKNTLYLQMNSLRAEDTAVYYCARHGGYNPYGLDYWGQGTLVTVSS VL: DIQMTQSPFSLSASVGDRVTITCRASQNILTYLNWYQQKPGKAPKLLIYGASTLRSGVPSRFSGSGSGTDFTLTISSLQPEDFATYYCQQSYRLPLTFGGGTKVEIK
12 | 66.4 MFI ratio | CD40L-350 (antibody, V domains shown) VH: EVQLLESGGGLVQPGGSLRLSCAASGLTFGSYAMSWVRQAPGKGLEWVSAISGSVGSTYYADSVKGRFTISRDNSKNTLYLQMNSLRAEDTAVYYCARHGGYYYYYMDVWGQGTLVTVSS VL: DIQMTQSPSSLSASVGDRVTITCRASQSISSYVSWYQQKPGKAPKLLIYDASSLSGGVPSRFSGSGSGTDFTLTISSLQPEDFATYYCQQSYRIPLTFGGGTKVEIK
13 | 5.8 MFI ratio | CD40L-349 (antibody, V domains shown) VH: EVQLLESGGGLVQPGGSLRLSCAASGFGFSSYAMSWVRQAPGKGLEWVSAISGGGGSIYYADSVKGRFTISRDNSKNTLYLQMNSLRAEDTAVYYCATDYGDYDRLNFDLWGQGTLVTVSS VL: DIQMTQSPSSLSASVGDRVTITCRASQTIGSYLNWYQQKPGKAPKLLIYAASTLQPGVPSRFSGSGSGTDFTLTISSLQPEDFATYYCQQSYETPLTFGGGTKVEIK
14 | 1.6 MFI ratio | CD40L-386 (antibody, V domains shown) VH: not shown VL: DIQMTQSPSSLSASVGDRVTITCRASESITTYLNWYQQKPGKAPKLLIYTASGLQSGVPSRFSGSGSGTDFTLTISSLQPEDFATYYCQQSYTVPITFGGGTKVEIK
15 | 5 MFI ratio | CD40L-429 (antibody, V domains shown) VH: not shown VL: DIQMTQSPSSLSASVGDRVTITCRASQTISYYLNWYQQKPGKAPKLLIYDATSLQSGVPSRFSGSGSGTDFTLTISSLQPEDFATYYCQQTYSLPLTFGGGTKVEIK
16 | 6.9 MFI ratio | CD40L-354 (antibody, V domains shown) VH: EVQLLESGGGLVQPGGSLRLSCAASGFSFSSYAMAWVRQAPGKGLEWVSSISGSGGGGNTYYADSVKGRFTISRDNSKNTLYLQMNSLRAEDTAVYYCARHHERDYYGMDVWGQGTLVTVSS VL: DIQMTQSPSSLSASVGDRVTITCRASQSIGEYLNWYQQKPGKAPKLLIYSASSLQNGVPSRFSGSGSGTDFTLTISSLQPEDFATYYCQQTYSFPLTFGGGTKVEIK
17 | 6.2 MFI ratio | CD40L-396 (antibody, V domains shown) VH: EVQLLESGGGLVQPGGSLRLSCAASGFSFSSYAMAWVRQAPGKGLEWVSSISGSGGGGNTYYADSVKGRFTISRDNSKNTLYLQMNSLRAEDTAVYYCARHHERDYYGMDVWGQGTLVTVSS VL: DIQMTQSPSSLSASVGDRVTITCRASQRISRYLNWYQQKPGKAPKLLIYRASTLQSGVPSRFSGSGSGTDFTLTISSLQPEDFATYYCQQSHSSPLTFGGGTKVEIK
18 | 3.6 MFI ratio | CD40L-418 (antibody, V domains shown) VH: EVQLLESGGGLVQPGGSLRLSCAASGFTFGRYAMSWVRQAPGKGLEWVSDISGSGGSTYYADSVKGRFTISRDNSKNTLYLQMNSLRAEDTAVYYCARDGFRWGRAEYFQHWGQGTLVTVSS VL: DIQMTQSPSSLSASVGDRVTITCRASESITTYLNWYQQKPGKAPKLLIYTASGLQSGVPSRFSGSGSGTDFTLTISSLQPEDFATYYCQQSYTVPITFGGGTKVEIK
19 | 71.2 MFI ratio | CD40L-379 (antibody, V domains shown) VH: EVQLLESGGGLVQPGGSLRLSCAASGFTFGSFAMNWVRQAPGKGLEWVSAITGGGGSTYYADSVKGRFTISRDNSKNTLYLQMNSLRAEDTAVYYCAHGLAWRWGFDYWGQGTLVTVSS VL: DIQMTQSPSSLSASVGDRVTITCRASQNIDRYLNWYQQKPGKAPKLLIYAASALQSGVPSRFSGSGSGTDFTLTISSLQPEDFATYYCQQSYSILPVTFGGGTKVEIK
20 | 5.1 MFI ratio | CD40L-359 (antibody, V domains shown) VH: EVQLLESGGGLVQPGGSLRLSCAASGYTFSSYAMSWVRQAPGKGLEWVSGISGGGTSTYYADSVKGRFTISRDNSKNTLYLQMNSLRAEDTAVYYCARFGNHYDRTGYSDYWGQGTLVTVSS VL: DIQMTQSPSSLSASVGDRVTITCRASQNIGGYLNWYQQKPGKAPKLLIYGASRLQSGVPSRFSGSGSGTDFTLTISSLQPEDFATYYCQQSYSTPFTFGGGTKVEIK
21 | 4.2 MFI ratio | CD40L-358 (antibody, V domains shown) VH: EVQLLESGGGLVQPGGSLRLSCAASGFTFSTYAMNWVRQAPGKGLEWVSAISGSGGTTYYADSVKGRFTISRDNSKNTLYLQMNSLRAEDTAVYYCARGPNNWNYVSFDYWGQGTLVTVSS VL: DIQMTQSPSSLSASVGDRVTITCRASQYIGTYLNWYQQKPGKAPKLLIYAAANLQSGVPSRFSGSGSGTDFTLTISSLQPEDFATYYCQQSYSIPLTFGGGTKVEIK
22 | 8.1 MFI ratio | CD40L-378 (antibody, V domains shown) VH: EVQLLESGGGLVQPGGSLRLSCAASGFTFRSYAMTWVRQAPGKGLEWVSAISGSGDRTYYGDSVKGRFTISRDNSKNTLYLQMNSLRAEDTAVYYCARIARSEDFWSGYYTDFDFDYWGQGTLVTVSS VL: DIQMTQSPSSLSASVGDRVTITCRASQSISTYLNWYQQKPGKAPKLLIYRASTLQSGVPSRFSGSGSGTDFTLTISSLQPEDFATYYCQQSYSNPPTFGGGTKVEIK
